This assay has as its target T1, NLRP3 (NLR family, pyrin domain containing 3), endogenous (human (endogenous in THP-1), UniProt Q96P20 1-1036).
T1 construct: NLRP3, endogenous in PMA-differentiated, LPS-primed THP-1 cells; also called NLPR3; source: endogenous, lysate or cytosolic fraction of LPS-primed THP-1 macrophage cells
Kind of assay: co-IP; NLRP3 immunoprecipitated from lysates of LPS-primed THP-1 macrophage cells, stimulated with ATP (5 mM, 1 h) or not; immunoblot for cytochrome c; lysis buffer 20 mM HEPES pH 7.4, 0.5% Triton X-100, 0.5% CHAPS, 10% glycerol; 4°C. The note with it: partners not purified.

T1 sequence (Q96P20 whole entry, the tested form may be a part): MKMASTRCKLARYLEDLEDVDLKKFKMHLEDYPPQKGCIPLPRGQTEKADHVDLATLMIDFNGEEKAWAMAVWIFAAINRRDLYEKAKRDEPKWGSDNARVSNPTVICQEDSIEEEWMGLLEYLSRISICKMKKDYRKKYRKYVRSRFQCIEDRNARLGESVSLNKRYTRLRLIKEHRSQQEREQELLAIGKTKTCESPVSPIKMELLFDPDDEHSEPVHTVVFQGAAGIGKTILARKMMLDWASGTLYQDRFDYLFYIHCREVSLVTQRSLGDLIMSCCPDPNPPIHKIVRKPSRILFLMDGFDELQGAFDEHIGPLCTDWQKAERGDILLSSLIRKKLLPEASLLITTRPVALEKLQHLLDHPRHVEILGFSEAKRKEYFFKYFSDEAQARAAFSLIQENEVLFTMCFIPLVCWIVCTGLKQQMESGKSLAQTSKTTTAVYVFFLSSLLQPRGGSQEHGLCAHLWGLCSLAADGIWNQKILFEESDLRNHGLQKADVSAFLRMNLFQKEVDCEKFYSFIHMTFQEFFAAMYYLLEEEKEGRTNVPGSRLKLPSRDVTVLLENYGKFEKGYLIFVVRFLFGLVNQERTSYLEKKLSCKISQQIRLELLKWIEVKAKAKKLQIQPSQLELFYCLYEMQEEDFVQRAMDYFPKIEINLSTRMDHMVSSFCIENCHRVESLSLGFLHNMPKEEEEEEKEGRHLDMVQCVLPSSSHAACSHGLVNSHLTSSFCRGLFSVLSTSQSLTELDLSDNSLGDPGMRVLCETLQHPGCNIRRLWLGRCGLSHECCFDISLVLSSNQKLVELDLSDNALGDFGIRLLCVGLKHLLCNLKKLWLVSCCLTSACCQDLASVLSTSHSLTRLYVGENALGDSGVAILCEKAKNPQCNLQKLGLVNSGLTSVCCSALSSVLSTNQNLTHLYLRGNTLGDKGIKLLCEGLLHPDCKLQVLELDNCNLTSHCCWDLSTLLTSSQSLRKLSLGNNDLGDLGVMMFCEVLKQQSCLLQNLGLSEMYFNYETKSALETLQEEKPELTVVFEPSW

B1: cytochrome c, endogenous (natural protein)
chain: not shown
notes: cytochrome c, endogenous in PMA-differentiated, LPS-primed THP-1 cells; source: endogenous, lysate or cytosolic fraction of LPS-primed THP-1 macrophage cells
As to B1, the “fold more cytochrome c co-precipitated with NLRP3 after ATP against no ATP” value was ~3 fold.

Source of the values: article PMC5193325, “Cytochrome c Negatively Regulates NLRP3 Inflammasomes” (PLoS ONE, 2016).
